From publication PMC5913127 come the findings set out here.

For orientation: EC50 means the concentration giving half of the maximal effect. Lower therefore signals greater potency. What is called Kd is a measure of binding affinity in units of concentration. A high value points to lower affinity.

Assay [1] concerns the target dimeric Aβ_(1-15) multi-antigen peptide (MAP). Put plainly: not stated; binding of antibody to branched multi-antigen peptides of Aβ1-15, EC50 (Fig. S5).
Assay [2] deals with ^chaducanumab (murine chimeric IgG2a/kappa version of aducanumab) (human | murine). The experiment in a line: ELISA; antibody (5 μg/mL) captured on coated goat anti-mouse IgG Fcγ antibody; serially diluted monomeric biotin-conjugated Aβ1-40 in PBS with 1% BSA; HRP-streptavidin detection. On the technique in general: In an ELISA, binding on a coated surface is turned into a signal by an enzyme label.

For assay [3], the target named is Aβ_(1-16) peptide (UniProt P05067). The experiment in a line: MST.
The target of assay [4] is Aβ_(1-28) peptide. Put plainly: SPR. (Surface plasmon resonance follows binding to a sensor surface in real time, without labels.)
Sequence of Aβ_(1-28) peptide (P05067 672-699): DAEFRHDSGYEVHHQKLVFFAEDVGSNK

Regarding “^chaducanumab (murine chimeric IgG2a/kappa version of aducanumab) (antibody)”, in assay [1], the EC50 is more than 1000 nM. “biotin-conjugated Aβ_(1-40) (Aβ_(1-40)-Lys-Biotin), monomeric (peptide)” yielded an EC50 in assay [2] of more than 1000 nM.

On to chgantenerumab, for which the Kd in assay [3] was 96.6 nM; in assay [4], 1300 nM.
